US20200299347A1 (Merck KGaA, published 2020)

How the values were obtained:
[1] = biological target: NGF; experiment: cell-based or functional assay
[2] = biological target: FGFR3; experiment: cell-based or functional assay

Chain of NGF (P01138 122-241): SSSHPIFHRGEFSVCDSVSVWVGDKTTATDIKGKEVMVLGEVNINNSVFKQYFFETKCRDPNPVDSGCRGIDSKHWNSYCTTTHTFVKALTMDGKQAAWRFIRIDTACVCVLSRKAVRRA

anti-NGF IC50 (nM), U2OS TrkA_p75 assay; construct from expiCHO-S [1] [nM]	FGF18 EC50 (nM), BaF3/FGFR3 assay; construct from expiCHO-S [2] [nM]	anti-NGF IC50 (nM), U2OS TrkA_p75 assay; construct from HEK293 [1] [nM]	FGF18 EC50 (nM), BaF3/FGFR3 assay; construct from HEK293 [2] [nM]	Binder
1.07	0.06			FGF18_Fab fulranumab (HL) (other) heavy: EENVDFRIHVENQTRARDDVSRKQLRLYQLYSRTSGKHIQVLGRRISARGEDGDKYAQLLVETDTFGSQVRIKGKETEFYLCMNRKGKLVGKPDGTSKECVFIEKVLENNYTALMSAKYSGWYVGFTKKGRPRKGPKTRENQQDVHFMKRYPKGQPELQKPFKYTTVTKGGGGSGGGGSEVQLVESGGGLVQPGGSLRLSCAASGFTLRSYSMNWVRQAPGKGLEWVSYISRSSHTIFYADSVKGRFTISRDNAKNSLYLQMDSLRDEDTAMYYCARVYSSGWHVSDYFDYWGQGILVTVSSASTKGPSVFPLAPSSKSTSGGTAALGCLVKDYFPEPVTVSWNSGALTSGVHTFPAVLQSSGLYSLSSVVTVPSSSLGTQTYICNVNHKPSNTKVDKKVEPKSC light: not shown
1.61	0.07			FGF18_Fab fulranumab (LH) (other) light: not shown heavy: EVQLVESGGGLVQPGGSLRLSCAASGFTLRSYSMNWVRQAPGKGLEWVSYISRSSHTIFYADSVKGRFTISRDNAKNSLYLQMDSLRDEDTAMYYCARVYSSGWHVSDYFDYWGQGILVTVSSASTKGPSVFPLAPSSKSTSGGTAALGCLVKDYFPEPVTVSWNSGALTSGVHTFPAVLQSSGLYSLSSVVTVPSSSLGTQTYICNVNHKPSNTKVDKKVEPKSC
0.44	0.05			FGF18 SEED tanezumab (MBE626) (other) EENVDFRIHVENQTRARDDVSRKQLRLYQLYSRTSGKHIQVLGRRISARGEDGDKYAQLLVETDTFGSQVRIKGKETEFYLCMNRKGKLVGKPDGTSKECVFIEKVLENNYTALMSAKYSGWYVGFTKKGRPRKGPKTRENQQDVHFMKRYPKGQPELQKPFKYTTVTKGGSGGSGSGSEPKSSDKTHTCPPCPAPEAAGGPSVFLFPPKPKDTLMISRTPEVTCVVVDVSHEDPEVKFNWYVDGVEVHNAKTKPREEQYNSTYRVVSVLTVLHQDWLNGKEYKCKVSNKALPAPIEKTISKAKGQPFRPEVHLLPPSREEMTKNQVSLTCLARGFYPKDIAVEWESNGQPENNYKTTPSRQEPSQGTTTFAVTSKLTVDKSRWQQGNVFSCSVMHEALHNHYTQKTISLSPGK heavy: QVQLQESGPGLVKPSETLSLTCTVSGFSLIGYDLNWIRQPPGKGLEWIGIIWGDGTTDYNSAVKSRVTISKDTSKNQFSLKLSSVTAADTAVYYCARGGYWYATSYYFDYWGQGTLVTVSSASTKGPSVFPLAPSSKSTSGGTAALGCLVKDYFPEPVTVSWNSGALTSGVHTFPAVLQSSGLYSLSSVVTVPSSSLGTQTYICNVNHKPSNTKVDKKVEPKSCDKTHTCPPCPAPEAAGGPSVFLFPPKPKDTLMISRTPEVTCVVVDVSHEDPEVKFNWYVDGVEVHNAKTKPREEQYNSTYRVVSVLTVLHQDWLNGKEYKCKVSNKALPAPIEKTISKAKGQPREPQVYTLPPPSEELALNELVTLTCLVKGFYPSDIAVEWLQGSQELPREKYLTWAPVLDSDGSFFLYSILRVAAEDWKKGDTFSCSVMHEALHNRFTQKSLDRSPGK light: not shown
0.84	0.05			FGF18_Fab tanezumab (HL) (other) heavy: EENVDFRIHVENQTRARDDVSRKQLRLYQLYSRTSGKHIQVLGRRISARGEDGDKYAQLLVETDTFGSQVRIKGKETEFYLCMNRKGKLVGKPDGTSKECVFIEKVLENNYTALMSAKYSGWYVGFTKKGRPRKGPKTRENQQDVHFMKRYPKGQPELQKPFKYTTVTKGGGGSGGGGSQVQLQESGPGLVKPSETLSLTCTVSGFSLIGYDLNWIRQPPGKGLEWIGIIWGDGTTDYNSAVKSRVTISKDTSKNQFSLKLSSVTAADTAVYYCARGGYWYATSYYFDYWGQGTLVTVSSASTKGPSVFPLAPSSKSTSGGTAALGCLVKDYFPEPVTVSWNSGALTSGVHTFPAVLQSSGLYSLSSVVTVPSSSLGTQTYICNVNHKPSNTKVDKKVEPKSC light: not shown
1.33	0.06			FGF18_Fab fasinumab (HL) (other) heavy: EENVDFRIHVENQTRARDDVSRKQLRLYQLYSRTSGKHIQVLGRRISARGEDGDKYAQLLVETDTFGSQVRIKGKETEFYLCMNRKGKLVGKPDGTSKECVFIEKVLENNYTALMSAKYSGWYVGFTKKGRPRKGPKTRENQQDVHFMKRYPKGQPELQKPFKYTTVTKGGGGSGGGGSQVQLVQSGAEVKKPGASVKVSCKVSGFTLTELSIHWVRQAPGKGLEWMGGFDPEDGETIYAQKFQGRVTMTEDTSTDTAYMELTSLRSEDTAVYYCSTIFGVVTNFDNWGQGTLVTVSSASTKGPSVFPLAPSSKSTSGGTAALGCLVKDYFPEPVTVSWNSGALTSGVHTFPAVLQSSGLYSLSSVVTVPSSSLGTQTYICNVNHKPSNTKVDKKVEPKSC light: DIQMTQSPSSLSASAGDRVTITCRASQAIRNDLGWYQQKPGKAPKRLIYAAFNLQSGVPSRFSGSGSGTEFTLTISSLQPEDLASYYCQQYNRYPWTFGQGTKVEIKRTVAAPSVFIFPPSDEQLKSGTASVVCLLNNFYPREAKVQWKVDNALQSGNSQESVTEQDSKDSTYSLSSTLTLSKADYEKHKVYACEVTHQGLSSPVTKSFNRGEC
0.86	0.08	0.52	0.21	FGF18_Fab tanezumab (LH) (other) light: not shown heavy: QVQLQESGPGLVKPSETLSLTCTVSGFSLIGYDLNWIRQPPGKGLEWIGIIWGDGTTDYNSAVKSRVTISKDTSKNQFSLKLSSVTAADTAVYYCARGGYWYATSYYFDYWGQGTLVTVSSASTKGPSVFPLAPSSKSTSGGTAALGCLVKDYFPEPVTVSWNSGALTSGVHTFPAVLQSSGLYSLSSVVTVPSSSLGTQTYICNVNHKPSNTKVDKKVEPKSC
1.56	0.1	0.54	0.27	FGF18_Fab fasinumab (LH) (other) light: EENVDFRIHVENQTRARDDVSRKQLRLYQLYSRTSGKHIQVLGRRISARGEDGDKYAQLLVETDTFGSQVRIKGKETEFYLCMNRKGKLVGKPDGTSKECVFIEKVLENNYTALMSAKYSGWYVGFTKKGRPRKGPKTRENQQDVHFMKRYPKGQPELQKPFKYTTVTKGGGGSGGGGSDIQMTQSPSSLSASAGDRVTITCRASQAIRNDLGWYQQKPGKAPKRLIYAAFNLQSGVPSRFSGSGSGTEFTLTISSLQPEDLASYYCQQYNRYPWTFGQGTKVEIKRTVAAPSVFIFPPSDEQLKSGTASVVCLLNNFYPREAKVQWKVDNALQSGNSQESVTEQDSKDSTYSLSSTLTLSKADYEKHKVYACEVTHQGLSSPVTKSFNRGEC heavy: QVQLVQSGAEVKKPGASVKVSCKVSGFTLTELSIHWVRQAPGKGLEWMGGFDPEDGETIYAQKFQGRVTMTEDTSTDTAYMELTSLRSEDTAVYYCSTIFGVVTNFDNWGQGTLVTVSSASTKGPSVFPLAPSSKSTSGGTAALGCLVKDYFPEPVTVSWNSGALTSGVHTFPAVLQSSGLYSLSSVVTVPSSSLGTQTYICNVNHKPSNTKVDKKVEPKSC
